# Key:
# [1] = target: T1, human LAG3-mFc (human, UniProt P18627 23-450); assay: competitive flow cytometry: antibody titrated against 3 nM LAG3-mFc binding to MHC II on Raji cells
# T1 construct: also called antigen human LAG3-mFc; not shown: mFc: Fc protein fragment of mouse IgG
# T1 sequence (looked up): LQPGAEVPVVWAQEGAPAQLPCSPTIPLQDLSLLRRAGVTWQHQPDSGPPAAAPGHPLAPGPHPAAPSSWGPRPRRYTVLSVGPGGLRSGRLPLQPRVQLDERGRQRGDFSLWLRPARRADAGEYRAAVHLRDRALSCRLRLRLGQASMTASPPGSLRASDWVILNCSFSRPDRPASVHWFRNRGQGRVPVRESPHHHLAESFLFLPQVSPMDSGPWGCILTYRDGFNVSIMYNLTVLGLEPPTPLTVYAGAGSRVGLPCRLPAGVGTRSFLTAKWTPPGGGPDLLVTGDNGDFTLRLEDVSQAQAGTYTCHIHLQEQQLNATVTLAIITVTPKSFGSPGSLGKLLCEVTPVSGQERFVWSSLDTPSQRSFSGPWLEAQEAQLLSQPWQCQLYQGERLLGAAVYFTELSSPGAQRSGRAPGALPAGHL
# Description: Raji cells (medium: 1640+10% FBS) (Cell Resource Center, Shanghai Institutes for Biological Sciences, Chinese Academy of Sciences, Cat. No. TCHu 44) were added into EP tubes at 300,000 cells per sample. 1000 μL of 1% PBSA (PBS containing 1% BSA) was added. The mixture was centrifuged at 600×g for 5 min, and the supernatant was discarded. […] The mixture was mixed well and pre-incubated on ice for 30 min. 100 μL of the pre-incubated mixture of antibody and protein was added to the sample. The mixture was mixed well and incubated on ice in the dark for 1 h; 200 μL of 1% PBSA was added, and the mixture was centrifuged at 600×g for 5 min, followed by removal of the supernatant, and then washed twice; 100 μL of an APC anti mouse antibody (purchased from Biolegend, Cat. No. 405308) (diluted at a 1:400 ratio) was added, and the mixture was mixed well and incubated on ice in the dark for 40 min; 200 μL of 1% PBSA was added, and the mixture was centrifuged at 600×g for 5 min, followed by removal of the supernatant; 200 μL of Washing Buffer was added into each tube to resuspend the cells, and then the suspension was transferred to a sample loading tube for testing on a flow cytometer.
# [2] = target: T2, human LAG3 (full length) expressed on cells (human, UniProt P18627 23-525); assay: flow cytometry on 293T-LAG3 cells
# T2 construct: whole, on cells; also called huLAG3FL
# T2 sequence (looked up): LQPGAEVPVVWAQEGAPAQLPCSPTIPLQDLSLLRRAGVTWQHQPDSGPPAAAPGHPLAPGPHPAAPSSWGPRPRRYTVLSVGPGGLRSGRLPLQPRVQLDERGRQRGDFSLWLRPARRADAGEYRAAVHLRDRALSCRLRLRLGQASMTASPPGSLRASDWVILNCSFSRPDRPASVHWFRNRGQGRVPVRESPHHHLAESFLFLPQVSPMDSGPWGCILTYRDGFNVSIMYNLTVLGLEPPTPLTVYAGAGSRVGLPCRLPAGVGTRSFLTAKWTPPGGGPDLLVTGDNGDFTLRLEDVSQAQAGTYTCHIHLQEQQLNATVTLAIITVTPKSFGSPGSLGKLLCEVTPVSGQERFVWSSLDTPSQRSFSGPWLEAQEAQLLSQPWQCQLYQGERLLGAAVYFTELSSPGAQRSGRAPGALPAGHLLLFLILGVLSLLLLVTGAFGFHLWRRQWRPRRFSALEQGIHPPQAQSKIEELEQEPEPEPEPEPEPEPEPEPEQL
# Description: After centrifugation and washing several times with 1% PBSA, 100 μL of FITC goat anti-human IgG (purchased from Jackson, Cat. No. 109-095-098) (diluted at a 1:500 ratio) was added into each tube, and the mixture was incubated on ice in the dark for 40 min. After washing once with 1% PBSA, 200 μL of 1% PBSA was added to resuspend the cells. Fluorescence signals were detected with FITC channel on a flow cytometer.
# [3] = target: T1, human LAG3-mFc; assay: ELISA, human LAG3-mFc coated 2 ug/mL
# Description: Then the ELISA plate coated with the antigen was washed once with PBST and then blocked with a PBS solution containing 1% BSA as a blocking solution at 37° C. for 2 h. After blocking, the ELISA plate was washed 3 times with PBST. The ELISA plate containing the test antibodies was incubated at 37° C. for 30 min and then washed 3 times with PBST. After washing, a working solution of an HRP-labeled goat anti-human IgG (H+L) (Jackson, Cat. No. 109-035-088) secondary antibody diluted at a ratio of 1:5000 was added, and then the plate was incubated at 37° C. for 30 min. After incubation, the plate was washed 4 times with PBST, TMB (Neogen, 308177) was added for chromogenesis in the dark for 5 min, and then a stop solution was added to terminate the chromogenic reaction. The ELISA plate was put into an ELISA plate reader immediately, and the OD value of each well in the ELISA plate was read at 450 nm. The data were analyzed and processed by SoftMax Pro 6.2.1.
Binder,EC50 [1],EC50 [2],EC50 [3]
"H7L9(hG4WT) (antibody, human IgG4 S228P, kappa, V domains shown, Humanized anti-LAG3 IgG4 (Ig gamma-4 chain C region) with human kappa constant region) VH: QVQLQQWGAGLLKPSETLSLTCAVYGGSISDYYWNWIRQPPGKGLEWIGEINHRGTTNSNPSLKSRVTLSLDTSKNQFSLKLRSVTAADTAVYYCAFGYSDYEYDWFDPWGQGTLVTVSS VL: EIVLTQSPATLSLSPGERATLSCRASQTISSYLAWYQQKPGQAPRLLIYDGSNRATGIPARFSGSGSGTDFTLTISSLEPEDFAVYYCQQRSNWPLTFGQGTNLEIKR",1.32 nM,4.81 nM,0.142 nM
"H7L10(hG4WT) (antibody, human IgG4 S228P, kappa, V domains shown, Humanized anti-LAG3 IgG4 (Ig gamma-4 chain C region) with human kappa constant region) VH: QVQLQQWGAGLLKPSETLSLTCAVYGGSISDYYWNWIRQPPGKGLEWIGEINHRGTTNSNPSLKSRVTLSLDTSKNQFSLKLRSVTAADTAVYYCAFGYSDYEYDWFDPWGQGTLVTVSS VL: EIVLTQSPATLSLSPGERATLSCRASQSISSYLAWYQQKPGQAPRLLIYDGSNRATGIPARFSGSGSGTDFTLTISSLEPEDFAVYYCQQRSNWPITFGQGTNLEIKR",1.27 nM,4.17 nM,0.157 nM

# — patent publication US20250042995A1 (AKESO BIOPHARMA, published 2025)
